Reference: CN116063501A (HUADAO SHANGHAI BIOMEDICAL CO LTD, dated 2023)

Target: T1, CD4抗原 (UniProt P01730 26-458, limits assumed)
T1 construct: whole, on cells; also called 细胞表面的CD4抗原
Test: flow cytometry on Nalm6-CD4 cells; antibody from 4 μg/mL in 4-fold steps, 10 concentrations; APC goat anti-mouse IgG secondary

B1: 抗CD4-1抗体 (antibody, V domains shown)
VH: EVQLQQSGPELVKPGDSVKMSCKASGYTFTDYFMDWVKQSHGKSLEWIGYIYPNNGGTNNNQKFKGKATLTVDKSSSTAYMELHSLTSEDSAVYYCARRGYDEGFAYWGQGTLVTVSS
VL: DILLTQSPAILSVSPGERVSFSCRASQIIGTSILWYQQRTNGSPRLLIKYASESISGIPSRFSGSGSGTDFTLSINSVESEDIADYYCQQSNTWPFTFGGGTKLEMK
notes: Detected with a goat anti-mouse IgG secondary antibody; also called 抗CD4抗体; 抗CD4(CD4-1)抗体
Work on B1 yielded an EC50 of 0.101 µg/mL.
